Experimental data from the supplement of paper PMC12764529.
± gives the half width of the 95% confidence interval.

Key:
[1] = folding stability dG unfold from trypsin proteolysis; higher = more stable
Method in brief: (§1)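 Only designs with AlphaFold2 dimer inter-PAE above 15 were retained; each was a mini-protein under 80 residues with no cysteine, in a PA-tagged cDNA display construct. After digestion with trypsin and chymotrypsin and sequencing, K50 was inferred by Bayesian fitting of counts, and unfolding free energy was derived per protease or combined against a sequence-predicted unfolded-state K50 and a shared folded-state K50.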

[2] = folding stability dG unfold (combined trypsin and chymotrypsin); higher = more stable
Method in brief: as §1

[3] = folding stability dG unfold from chymotrypsin proteolysis; higher = more stable
Method in brief: as §1

Sequence | folding stability dG unfold [1] | folding stability dG unfold [2] | folding stability dG unfold [3]
SAGGMKIKLKDGSEITIGSEPGRLVIVLRPPGPRSRKVIPFPVPSKEHGFVAAVNELLSLEDIEEIEPSAGG [r13_579_TrMRF] | 1.59 ± 0.46 kJ/mol | 4.8 ± 0.837 kJ/mol | 5.62 ± 0.322 kJ/mol
SAGGMKIKLKNGKVIEIKKKPGYIEIKIIDKKTKKVYTYTFKSKDGKISLEDLAKKLAELPNIKEIIPSAGG [r13_579_TrROS_Hall] | 13.8 ± 1.21 kJ/mol | 17.9 ± 1.34 kJ/mol | 18.7 ± 0.628 kJ/mol
SAGGMKIKTKSGKELTLKKIKLKYKNKEYEIENLKIKAIKYDPKKKIVHIEVTHPNGKKYTFDLKIKSAGGS [r8_215_TrMRF] | 7.06 ± 0.218 kJ/mol | 11.7 ± 0.879 kJ/mol | 14.6 ± 0.36 kJ/mol
SAGGMKIRIPEGQEVKLKKVRFWHNGKPWKIPNMEIKVDRIDPNDNRVQIEIKHPNGRPHTFAFDIKSAGGS [r8_215_TrROS] | 1.92 ± 0.46 kJ/mol | 2.14 ± 0.36 kJ/mol | 1.91 ± 0.544 kJ/mol
SAGGMKITITYDKETKTITVKITYPDGTTEELTIEVPPEKKTPEEIAEELKKLIEERFGKKVEIEIVSAGGS [r8_166_TrROS_Hall] | 16 ± 1.09 kJ/mol | 12.5 ± 0.628 kJ/mol | 10.3 ± 0.753 kJ/mol
SAGGMKITKEGNELTLTYPNLTVTYDPNTGKMTITNPATGKTVTIPVPATSLEEKLAAVEEVKAALPSAGGS [r8_447_JUSTAS] | 4.42 ± 0.105 kJ/mol | 3.84 ± 0.172 kJ/mol | 2.96 ± 0.176 kJ/mol
SAGGMKITLPPGAEITEVFELPDGQLLLRVRHKDTGKTEVVPASDLEIEIEPGEEVEVEIFRVPKEDLSAGG [r13_173_TrROS_Hall] | 5.76 ± 0.289 kJ/mol | 5.83 ± 0.586 kJ/mol | 6.05 ± 0.544 kJ/mol
SAGGMKIVEITEEVPPGAVVRITFEDGSKREIKIPNVAELKGKKITLELPGLKVVKIEVVPAKEGEEVSAGG [r13_587_TrROS_Hall] | 9.6 ± 0.628 kJ/mol | 8.56 ± 2.01 kJ/mol | 7.06 ± 1.21 kJ/mol
SAGGMKKITITIPLEELKNLTPEERKEKLKELAEEIAKKLGLPPGAKIKKIEVEEVDGKLYVKIEIESAGGS [r16_368_TrROS_Hall] | 16 ± 0.753 kJ/mol | 16.4 ± 0.418 kJ/mol | 16.4 ± 0.276 kJ/mol
SAGGMKKTVTITITEELPTETGEYKTKTVTTTLTVTPPPPEVTEEEKLREKALKENPNVSPDDPKALLSAGG [r13_136_JUSTAS] | -3.97 ± 2.51 kJ/mol | 0.642 ± 0.586 kJ/mol | 2.24 ± 0.46 kJ/mol
SAGGMKLEFEAEITVPLPVPTPEGGLEFVPITEPIRIEAEHPEELEIALKEAELETIERALKELGIESAGGS [r16_339_TrMRF] | -2.49 ± 0.795 kJ/mol | -3.54 ± 2.47 kJ/mol | -3.03 ± 0.669 kJ/mol
SAGGMKLVVTKVGEDDNTEYYLITDPGSAEAIREAIKKLVPKDLPYKVTVLSYDPATGTYTVLVEVKRSAGG [r13_491_JUSTAS] | 12.2 ± 0.544 kJ/mol | 14.4 ± 0.46 kJ/mol | 15.3 ± 0.163 kJ/mol
SAGGMKPGEKVLVKITLKKEVFKNENGEEVKVEEKEILIELEVDSLEEALEALKKLLPPGAEIEVLPSAGGS [r16_282_TrROS_Hall] | 14.7 ± 0.544 kJ/mol | 13.6 ± 0.544 kJ/mol | 13 ± 0.197 kJ/mol
SAGGMKPGESSTVPPVVERTTSPDSLGNPRYTVTRVTEITVTYFPDSINVTVTTETTVVSTATPGLLSAGGS [r8_70_JUSTAS] | 9.22 ± 0.247 kJ/mol | 7.43 ± 0.293 kJ/mol | 4.82 ± 0.13 kJ/mol
SAGGMKPGQPWHEIEVQREIDLPPGQISAEEIADLIAELFPGFRVEDFRIEFTGKKWRIDVTIYIPYSAGGS [r8_202_TrROS] | 10.7 ± 0.305 kJ/mol | 13.2 ± 0.46 kJ/mol | 14.6 ± 0.163 kJ/mol
SAGGMKTAVLTLEVPGLPKRLVLIAGESEEEYKKLAAEAEKPGYEFLGYTTLEELVERTGLPASLLLSAGGS [r16_438_JUSTAS] | 3.83 ± 0.356 kJ/mol | 4.06 ± 0.795 kJ/mol | 4.47 ± 1.17 kJ/mol
SAGGMKTFEKPMTAEEVMALLEEIAKKGNVNVTIETEGKTYEVDPSKAKPIPPENVTAKITITELPKSAGGS [r16_628_JUSTAS] | -0.214 ± 0.628 kJ/mol | 0.778 ± 1.17 kJ/mol | -0.762 ± 0.711 kJ/mol
SAGGMKTLRLVVTVKVPKETGKPTVAEKLAEELAKLPGVEVVKVEVKRLENGTVVVTIEIKVPKELKPSAGG [r13_428_TrROS_Hall] | 13.1 ± 0.962 kJ/mol | 13.3 ± 0.544 kJ/mol | 14.1 ± 0.255 kJ/mol
SAGGMKTVEIEIPVPPGMSIEELVKKLLEELKKKKDIKEVEIEITLKDGSKIKIRVNKNGKIVKVEKLSAGG [r13_690_TrROS_Hall] | 7.24 ± 0.234 kJ/mol | 9.39 ± 0.628 kJ/mol | 10.3 ± 0.46 kJ/mol
SAGGMKVKKIPVIVKILRKKDKKPIKEIPALAYKVDDKIYLVFEKPKDIKIAKEIAEKTGLPIEIYPSAGGS [r16_327_TrMRF] | 4.23 ± 0.105 kJ/mol | 6.96 ± 0.276 kJ/mol | 8.45 ± 0.259 kJ/mol
SAGGMKVRIRIEVDGKTLELELEVEPGETVKITLEVNGEEVTITFDAATGEITIELPPGAKIVEIEPSAGGS [r16_761_TrROS_Hall] | 14.9 ± 0.962 kJ/mol | 16.8 ± 1.63 kJ/mol | 18.9 ± 1.92 kJ/mol

Sequence | folding stability dG unfold [1] | folding stability dG unfold [2] | folding stability dG unfold [3]
SAGGMKVTILEVKPDEVVVKTSDGKTYVFPEVIKELKEKGGGVLPTKEEIAEYLKKNNIPVDDVEFGLSAGG [r13_610_JUSTAS] | 1.82 ± 0.418 kJ/mol | 6.71 ± 0.628 kJ/mol | 7.96 ± 0.243 kJ/mol
SAGGMKVTPNGKVVKKKPKVPVKKVTLTVKVKTAEEAKALADALRDLGYKVTVDEETGVVTVEVEIESAGGS [r16_765_TrROS_Hall] | 4.17 ± 0.331 kJ/mol | 5.36 ± 0.418 kJ/mol | 6.26 ± 0.243 kJ/mol
SAGGMKVTRLPNALVFEYPLPNSTLRIVVTPGDGTYTLELYRDGKLIATFPSPGPVADLVEAAIKALSAGGS [r8_276_TrMRF] | 10.7 ± 0.222 kJ/mol | 12.6 ± 0.305 kJ/mol | 13.4 ± 0.138 kJ/mol
SAGGMKVTTKPLPSDSEVVDIPGGVTMKIDPKTGVGTITLPDGKTLKMTITKDPNKNTTTITITPESSAGGS [r8_186_JUSTAS] | 1.53 ± 0.669 kJ/mol | 4.18 ± 0.92 kJ/mol | 4.79 ± 0.837 kJ/mol
SAGGMKVVIYVKDPEKFLKAIEEIENIPLENVKFEPLEGDYYKYEFPNLEAVEELIKKGYDILKIEPSAGGS [r16_381_TrMRF] | 8.21 ± 0.377 kJ/mol | 9.79 ± 0.347 kJ/mol | 10.8 ± 0.126 kJ/mol
SAGGMLIIRIEIEIEKNGKKEKKEILIVAKTEEEAKKAAEKIAKEKGLKIKKIEILPFKSLEELKKALSAGG [r13_949_TrROS_Hall] | 8.87 ± 0.255 kJ/mol | 13 ± 0.372 kJ/mol | 14.5 ± 0.155 kJ/mol
SAGGMLLLTLTVDRVEEAEFPEKVPYLRTTTQPVVVPGTTLEEAEAVAAALAAAHGVPVTLTVTPETGSAGG [r13_320_JUSTAS] | -1.31 ± 0.669 kJ/mol | -0.789 ± 0.301 kJ/mol | -0.731 ± 0.46 kJ/mol
SAGGMLTLEEIKKAKPGEKLEIEVDGKIYLVEIKKNENGELTLTVKKVDKETGEIVEEKTISLEELLSAGGS [r16_763_TrROS_Hall] | 12.2 ± 0.46 kJ/mol | 14.8 ± 0.293 kJ/mol | 15.8 ± 0.322 kJ/mol
SAGGMLVVLLDDRPEVLPVNPERFETPEEAVEAVAREVAERFPDAGERRVVVVNEDGEEVATVELTPESAGG [r13_257_TrMRF] | -4.51 ± 0.502 kJ/mol | 1.92 ± 0.218 kJ/mol | 3.66 ± 0.167 kJ/mol
SAGGMMEVEEREVEIELELEPGQSIEEALRELLGLEEGDEIVDVEVEVDPETRKVKIRVVILRPPEEESAGG [r13_828_TrROS_Hall] | 17.7 ± 1.63 kJ/mol | 15.4 ± 2.18 kJ/mol | 11.7 ± 0.837 kJ/mol
SAGGMMIVIRIPNKPVEFEINGWKIEYNPDEGTIIIPFPPEMLDQLEKLPGLEGIKDIEIIPPGELKSAGGS [r8_493_TrROS] | 5.12 ± 0.121 kJ/mol | 8.88 ± 0.586 kJ/mol | 10.7 ± 0.213 kJ/mol
SAGGMMKIKITIINENGETLTIEIEVPEEDLEEAIKALEDELKKKGYEIESIERVNGKITITVRIKPSAGGS [r16_662_TrROS_Hall] | 16.8 ± 0.669 kJ/mol | 17.2 ± 0.502 kJ/mol | 17 ± 0.251 kJ/mol
SAGGMMKYVVRIKIYNENGEEVKEIEIEIEMSEEEVEELARKLAEKLAEELGVEVKIVEVEIEKLEPSAGGS [r16_140_TrROS_Hall] | 18.4 ± 1.55 kJ/mol | 18.4 ± 1.05 kJ/mol | 17.9 ± 0.837 kJ/mol
SAGGMNIVTYTLTIPPGRIEEVKEAIEALGIPVVKVELVEVLPGEGLAIVKIEVPNNVDPEKVKKALSSAGG [r13_725_JUSTAS] | 16.6 ± 0.795 kJ/mol | 17.1 ± 0.502 kJ/mol | 17.3 ± 0.586 kJ/mol
SAGGMPEVKYLEITITVEVPTEEEALEKLKEELKKLFPNAEIVSVEVEVEEEDGKLTVTVKITVKLPSAGGS [r8_120_TrROS_Hall] | 15.3 ± 0.92 kJ/mol | 14 ± 0.669 kJ/mol | 10.4 ± 0.46 kJ/mol
SAGGMPIKELTAEEIAALLKEKLGVDVEIEEVKVTVERDENGNYVLRIEVKFKETNETITLEIVLPKSAGGS [r16_42_TrROS_Hall] | 12.3 ± 0.389 kJ/mol | 16.2 ± 0.586 kJ/mol | 17.6 ± 0.669 kJ/mol
SAGGMPIYARIVLYPPETGKFSELEIEFPEFESPDEVVEAAKEIAEKLGGPIARIEIYDPKTGKPFPDSAGG [r13_771_TrMRF] | 2.48 ± 0.393 kJ/mol | 1.31 ± 1.13 kJ/mol | 1.18 ± 0.347 kJ/mol
SAGGMPKLTVTITFEPPDGSTTTTRDFTSVEEAIEALRAVPDIPVEPLEDDVIRARRPDSETTVTIVESAGG [r13_143_JUSTAS] | 0.805 ± 0.293 kJ/mol | -0.716 ± 0.46 kJ/mol | -3.33 ± 1 kJ/mol
SAGGMPKYFAEVDTEPHGDKVKITLRIRDPNGVERELTFELPLSEVIKLLKELPEEFEVFELKFSDESAGGS [r16_298_TrMRF] | 8.56 ± 0.176 kJ/mol | 11.3 ± 0.586 kJ/mol | 13.1 ± 0.142 kJ/mol
SAGGMPLEDMSLEELKARLEEALEELRAKLPPGEKKTLTLTVTLTVVDKETGETRTVTLTVTLTLPAPSAGG [r13_385_TrROS_Hall] | 14.3 ± 0.268 kJ/mol | 17.4 ± 0.318 kJ/mol | 18.3 ± 0.218 kJ/mol
